The results in this text go back to US6646113 (University of Pennsylvania, dated 2003).

The target in assay [1] is T1, GST-SMN fusion protein (human, UniProt Q16637 1-294).
T1 construct: Recombinant from E. coli, immobilised on glutathione-Sepharose; also called GST-SMNwt; GST-SMN chimeric protein; not shown: glutathione S-transferase (GST) tag of vector pGEX-5X
Description: GST pull-down, 35S IVT protein (FIG. 44).

In assay [2] the target is T2, SMN, endogenous protein in human cell extracts (human, UniProt Q16637 2-294).
T2 construct: also called Survival of Motor Neurons protein
T2 sequence (Q16637 2-294 limits assumed): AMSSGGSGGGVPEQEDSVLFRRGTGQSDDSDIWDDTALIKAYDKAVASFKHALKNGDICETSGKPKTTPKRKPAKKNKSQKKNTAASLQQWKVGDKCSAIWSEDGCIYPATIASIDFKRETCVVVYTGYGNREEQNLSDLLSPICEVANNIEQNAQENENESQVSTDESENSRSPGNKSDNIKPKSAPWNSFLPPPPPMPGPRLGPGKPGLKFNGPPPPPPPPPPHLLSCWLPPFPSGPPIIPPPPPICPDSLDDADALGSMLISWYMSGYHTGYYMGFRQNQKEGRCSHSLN
Description: co-IP with 2B1 from transfected 293T cells, Western blot. A general note: Immunoblotting shows a protein as a band on a membrane.

For assay [3], the target named is T1, GST-SMN fusion protein. Description: GST pull-down, 35S IVT protein.
The target of assay [4] is Sm D1 protein, in vitro translated and 35S-labeled (UniProt P62314 1-119). Description: GST pull-down, 35S IVT protein.
The target of assay [5] is T3, His-tagged SMN wild type, purified recombinant (human, UniProt Q16637 1-294).
T3 construct: E. coli BL21(DE3)pLysS, nickel chelation chromatography; also called His-SMN; His6-SMN; not shown: His6 tag (pET28 vector, detected with anti-T7 tag antibody)
T3 sequence (Q16637 whole entry): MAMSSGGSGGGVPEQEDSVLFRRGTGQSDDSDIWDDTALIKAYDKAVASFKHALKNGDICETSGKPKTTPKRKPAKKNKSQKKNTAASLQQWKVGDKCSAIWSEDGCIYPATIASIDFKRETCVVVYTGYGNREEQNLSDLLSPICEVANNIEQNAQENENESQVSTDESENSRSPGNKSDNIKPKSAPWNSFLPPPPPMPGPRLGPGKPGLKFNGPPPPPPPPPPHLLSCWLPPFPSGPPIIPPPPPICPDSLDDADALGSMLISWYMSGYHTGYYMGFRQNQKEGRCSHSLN
The experiment in a line: in vitro binding of purified recombinant protein to GST-SIP1.

Assay [6] concerns the target T4, His-tagged SMNY272C, purified recombinant (human, UniProt Q16637 1-294).
T4 construct: also called His-SMNY272C; SMNY272C recombinant protein; not shown: His6 tag (pET28 vector)
The description is as above.

For assay [7], the target named is recombinant SMN protein (far-Western target) (human, UniProt Q16637 1-294, limits assumed). Description: far-Western with in vitro translated SIP1.
Sequence of recombinant SMN protein (far-Western target) (Q16637 whole entry): as above
In a further assay the target is T5, myc-tagged SMNY272C (human, UniProt Q16637 1-294).
T5 construct: In vitro translated (35S) or expressed in 293T cells
T5 sequence (Q16637 whole entry Y272C): as the sequence (Q16637 whole entry) above, with Y272C counted along it
The experiment in a line: co-IP with 2E17 from transfected 293T cells, Western blot.

The target in assay [8] is T2, SMN, endogenous protein in human cell …. Description: gel filtration (Superose 6 HR 10/30) of HeLa S100, Western blot. In general terms: In gel filtration, larger molecules generally elute earlier.
A further assay deals with T6, myc-tagged SMN wild type (human, UniProt Q16637 1-294).
T6 construct: In vitro translated (35S) or expressed in transfected 293T cells; also called myc-SMN; mycSMN
T6 sequence (Q16637 whole entry): as the sequence (Q16637 whole entry) above
The experiment in a line: co-IP with 2E17 from transfected 293T cells, Western blot (association in a complex).

For the next assay, the target named is T7, GST alone (UniProt P08515 1-218 = GST).
T7 construct: Negative control on glutathione-Sepharose; also called glutathione S-transferase
T7 sequence (P08515 whole entry): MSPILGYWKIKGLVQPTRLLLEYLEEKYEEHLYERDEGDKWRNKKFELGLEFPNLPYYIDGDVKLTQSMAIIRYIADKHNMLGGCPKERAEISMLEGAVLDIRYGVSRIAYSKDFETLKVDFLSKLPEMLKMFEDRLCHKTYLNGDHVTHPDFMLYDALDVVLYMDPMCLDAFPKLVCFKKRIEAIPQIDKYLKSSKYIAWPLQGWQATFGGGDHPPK
Description: GST pull-down, 35S IVT protein.

T1 sequence (Q16637 whole entry, the tested form may be a part): as the sequence (Q16637 whole entry) above
T4 sequence (Q16637 whole entry Y272C): as the sequence (Q16637 whole entry) above, with Y272C counted along it

B1: myc-tagged SIP1ΔC89 (other, not shown: small tags and cut ends)
chain: MRRAELAGLKTMAWVPAESAVEELMPRLLPVEPCDLTEGFDPSVPPRTPQEYLRRVQIEAAQCPDVVVAQIDPKKLKRKQSVNISLSGCQPAPEGYSPTLQWQQQQVAQFSTVRQNVNKHRSHWKSQQLDSNVTMPKSEDEEGWKKFCLGEKLCADGAVGPATNESPGIDYVQIGFPPLLSIVSRMNQATV
notes: The whole entry must be cut by 89 residues at the C-terminus
For the molecule B1, the binding result (in the assay with GST-SMN fusion protein [1]; in [2]) was “no binding” in each case.

B2: myc-ΔN548Gemin3 (other, not shown: small tags and cut ends)
chain: SVQTPVENSTNSQHQVKEALPVSLPQIPCLSSFKIHQPYTLTFAELVEDYEHYIKEGLEKPVEIIRHYTGPGDQTVNPQNGFVRNKVIEQKVPVLASSSQSGDSESDSDSYSSRTSSQSKGNKSYLESSSDNQLKDSESTPVDDRISLEQPPNGTDTPNPEKYQESPGIQMKTRLKEGASQRAKQSRRNLPRRSSFRLQTEAQEDDWYDCHREIRLSFSDTYQDYEEYWRAYYRAWQEYYAAASHSYYWNAQRHPSWMAAYHMNTIYLQEMMHSNQ
As for B2, the binding result with GST-SMN fusion protein [3] is given as “no binding”.

B3: GST-Gemin3 fusion protein (other)
chain: MAAAFEASGALAAVATAMPAEHVAVQVPAPEPTPGPVRILRTAQDLSSPRTRTGDVLLAEPADFESLLLSRPVLEGLRAAGFERPSPVQLKAIPLGRCGLDLIVQAKSGTGKTCVFSTIALDSLVLENLSTQILILAPTREIAVQIHSVITAIGIKMEGLECHVFIGGTPLSQDKTRLKKCHIAVGSPGRIKQLIELDYLNPGSIRLFILDEADKLLEEGSFQEQINWIYSSLPASKQMLAVSATYPEFLANALTKYMRDPTFVRLNSSDPSLIGLKQYYKVVNSYPLAHKVFEEKTQHLQELFSRIPFNQALVFSNLHSRAQHLADILSSKGFPAECISGNMNQNQRLDAMAKLKHFHCRVLISTDLTSRGIDAEKVNLVVNLDVPLDWETYMHRIGRAGRFGTLGLTVTYCCRGEEENMMMRIAQKCNINLLPLPDPIPSGLMEECVDWDVEVKAAVHTYGIASVPNQPLKKQIQKIERTLQIQKAHGDHMASSRNNSVSGLSVKSKNNTKQKLPVKSHSECGIIEKATSPKELGCDRQSEEQMKNSVQTPVENSTNSQHQVKEALPVSLPQIPCLSSFKIHQPYTLTFAELVEDYEHYIKEGLEKPVEIIRHYTGPGDQTVNPQNGFVRNKVIEQKVPVLASSSQSGDSESDSDSYSSRTSSQSKGNKSYLESSSDNQLKDSESTPVDDRISLEQPPNGTDTPNPEKYQESPGIQMKTRLKEGASQRAKQSRRNLPRRSSFRLQTEAQEDDWYDCHREIRLSFSDTYQDYEEYWRAYYRAWQEYYAAASHSYYWNAQRHPSWMAAYHMNTIYLQEMMHSNQ
notes: also called Gemin3-GST; not shown: glutathione S-transferase (GST) tag of vector pGEX-5X-3
Take B3: in assay [4], the binding result is given as “no binding”.

B4: myc-tagged SIP1ΔC162 (other, not shown: small tags and cut ends)
chain: MRRAELAGLKTMAWVPAESAVEELMPRLLPVEPCDLTEGFDPSVPPRTPQEYLRRVQIEAAQCPDVVVAQIDPKKLKRKQSVNISLSGCQPAPEGYSPTLQWQQQQVAQFSTVRQNVN
On to B4, for which the binding result with GST-SMN fusion protein [1] is “no binding”.

B5: GST-SIP1 fusion protein (other, not shown: a dimerising Fc or GST)
chain: MRRAELAGLKTMAWVPAESAVEELMPRLLPVEPCDLTEGFDPSVPPRTPQEYLRRVQIEAAQCPDVVVAQIDPKKLKRKQSVNISLSGCQPAPEGYSPTLQWQQQQVAQFSTVRQNVNKHRSHWKSQQLDSNVTMPKSEDEEGWKKFCLGEKLCADGAVGPATNESPGIDYVQIGFPPLLSIVSRMNQATVTSVLEYLSNWFGERDFTPELGRWLYALLACLEKPLLPEAHSLIRQLARRCSEVRLLVDSKDDERVPALNLLICLVSRYFDQRDLADEPS
For the molecule B5, the binding result in assay [5] and in assay [6] was “binds” each time.

B6: myc-tagged SIP1 wild type (other, not shown: small tags and cut ends)
chain: MRRAELAGLKTMAWVPAESAVEELMPRLLPVEPCDLTEGFDPSVPPRTPQEYLRRVQIEAAQCPDVVVAQIDPKKLKRKQSVNISLSGCQPAPEGYSPTLQWQQQQVAQFSTVRQNVNKHRSHWKSQQLDSNVTMPKSEDEEGWKKFCLGEKLCADGAVGPATNESPGIDYVQIGFPPLLSIVSRMNQATVTSVLEYLSNWFGERDFTPELGRWLYALLACLEKPLLPEAHSLIRQLARRCSEVRLLVDSKDDERVPALNLLICLVSRYFDQRDLADEPS
notes: In vitro translated (35S) or expressed in 293T cells; also called myc-SIP1; myc-Gemin2
Take B6: the binding result in assay [2] was “binds”.

B7: SIP1 (human), in vitro translated and 35S-labeled (other)
chain: MRRAELAGLKTMAWVPAESAVEELMPRLLPVEPCDLTEGFDPSVPPRTPQEYLRRVQIEAAQCPDVVVAQIDPKKLKRKQSVNISLSGCQPAPEGYSPTLQWQQQQVAQFSTVRQNVNKHRSHWKSQQLDSNVTMPKSEDEEGWKKFCLGEKLCADGAVGPATNESPGIDYVQIGFPPLLSIVSRMNQATVTSVLEYLSNWFGERDFTPELGRWLYALLACLEKPLLPEAHSLIRQLARRCSEVRLLVDSKDDERVPALNLLICLVSRYFDQRDLADEPS
notes: Made in rabbit reticulocyte lysate; also called full-length SIP1; Gemin2
Turning to B7, the binding result in assay [7] was “binds”.

B8: SIP1 (Gemin2), endogenous protein in human cell extracts (other)
chain: MRRAELAGLKTMAWVPAESAVEELMPRLLPVEPCDLTEGFDPSVPPRTPQEYLRRVQIEAAQCPDVVVAQIDPKKLKRKQSVNISLSGCQPAPEGYSPTLQWQQQQVAQFSTVRQNVNKHRSHWKSQQLDSNVTMPKSEDEEGWKKFCLGEKLCADGAVGPATNESPGIDYVQIGFPPLLSIVSRMNQATVTSVLEYLSNWFGERDFTPELGRWLYALLACLEKPLLPEAHSLIRQLARRCSEVRLLVDSKDDERVPALNLLICLVSRYFDQRDLADEPS
Turning to B8, the binding result (with myc-tagged SMNY272C; in [8]; with myc-tagged SMN wild type) was “binds” throughout.

B9: myc-ΔN368C277Gemin3 (other, not shown: small tags and cut ends)
chain: TSRGIDAEKVNLVVNLDVPLDWETYMHRIGRAGRFGTLGLTVTYCCRGEEENMMMRIAQKCNINLLPLPDPIPSGLMEECVDWDVEVKAAVHTYGIASVPNQPLKKQIQKIERTLQIQKAHGDHMASSRNNSVSGLSVKSKNNTKQKLPVKSHSECGIIEKATSPKELGCDRQSEEQMK
notes: also called ΔN368C272Gemin3
As to B9, the binding result with GST alone is listed as “no binding”.
